Experimental data: US20220177583A1 (University of California, published 2022)
Positions count from the first letter of the chain named.

T1: human CLDN6, endogenously expressed on cancer cell lines (human, UniProt P56747 1-220)
T1 construct: also called Endogenous CLDN6+; CLDN6 on ARK2, OVCA429, UMUC4 cells
T1 sequence: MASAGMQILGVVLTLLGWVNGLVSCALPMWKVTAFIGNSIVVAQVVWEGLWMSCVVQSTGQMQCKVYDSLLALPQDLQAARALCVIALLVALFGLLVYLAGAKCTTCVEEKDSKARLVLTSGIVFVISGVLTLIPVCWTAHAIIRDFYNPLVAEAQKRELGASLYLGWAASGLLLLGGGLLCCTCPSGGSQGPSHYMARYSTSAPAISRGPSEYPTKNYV

T2: mouse CLDN6 fused to GFP, expressed on engineered HEK293T cells (mouse, UniProt Q9Z262 1-219)
T2 construct: whole, on cells; also called HEK293T-CLDN6-mGFP Artificial CLDN6+ (mouse); murine CLDN6; not shown: GFP tag
T2 sequence (looked up): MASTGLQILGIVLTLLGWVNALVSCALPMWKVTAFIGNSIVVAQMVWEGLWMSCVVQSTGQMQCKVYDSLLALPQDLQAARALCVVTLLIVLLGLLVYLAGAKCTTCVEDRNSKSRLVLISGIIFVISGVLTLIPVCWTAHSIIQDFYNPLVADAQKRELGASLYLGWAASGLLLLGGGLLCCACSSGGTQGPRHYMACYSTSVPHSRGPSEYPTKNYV

B1: AB1-7 (antibody, V domains shown)
VH: QVQLVQSGAEVKKPGASVKMSCKASGYTFTTYTMHWVRQAPGQGLEWIGFINPSSGYTDYAQKFQGRVTLTADTSTSTVYMELSSLRSEDTAVYYCANGDYYVAYWGQGTLVTVSS
VL: DIQLTQSPSSLSASVGDRVTMTCTASSSVSSTYFHWYQQKPGKAPKLLIYSTSNLASGVPSRFSGSGSGTDYTLTISSMQPEDAATYYCHQYHRSPLTFGQGTKLEIK
notes: Humanized; also called humanized AB 1-7
B2: AB1-4 (antibody, V domains shown)
VH: B1 VH with M20V, I48M, L70M
VL: B1 VL
notes: Humanized; also called humanized AB 1-4
B3: AB1-6 (antibody, V domains shown)
VH: B1 VH
VL: B1 VL with L4M, M21I, M79L, A84F
notes: Humanized; also called humanized AB 1-6
B4: AB1-3 (antibody, V domains shown)
VH: B1 VH with M20V, I48M, L70M
VL: B1 VL with L4M, M21I, M79L, A84F
notes: Humanized; also called humanized AB 1-3
B5: AB1-8 (antibody, V domains shown)
VH: B1 VH
VL: B1 VL with L48W
notes: Humanized; also called humanized AB 1-8
B6: AB1-5 (antibody, V domains shown)
VH: B1 VH with M20V, I48M, L70M
VL: B1 VL with L48W
notes: Humanized; also called humanized AB 1-5
B7: AB11-chim (antibody, V domains shown)
VH: DVQLVESGGGLVQPRGSRKLSCAASGFTFSSFGMHWVRQAPEKGLEWVAYISSDSRTIYYADTVKGRFTISRDNPTNTLFLQMTSLRSEDTAMYYCARDYGRTYEAYWGQGTLVTVSA
VL: DIVLTQSPASLAVSLGQRATISCRASKSVSTSGYSYIHWYQQKPGQPPKLLIYLASNLESGVPARFSGSGSGTDFTLNIHPVEEEDAATYYCQHSRELPLTFGAGTKLELK
notes: Parental antibody prior to humanization ('chim'); also called pre-humanized form of AB11
B8: AB3-2 (antibody, V domains shown)
VH: EVQLLESGGGLVQPGGSMRLSCAASGFTFSNYWMNWVRQAPGKGLEWVAQIRLKSDNYATHYADSVKGRFTISRDDSKNTVYLQMNSLRAEDTGVYYCNDGPPSGCWGQGTLLTVSS
VL: DIQMTQSPSSLSASVGDRVTITCRISENIYSYLAWYQQKPGKAPKLLIYNAKILVEGVPSRFSGSGSGTDFTLTISSLQPEDFATYYCQHHYTVPWTFGQGTKLEIK
notes: Humanized; also called humanized AB 3-2
B9: AB3-3 (antibody, V domains shown)
VH: B8 VH
VL: B8 VL with I48V, A84G
notes: Humanized; also called humanized AB 3-3
B10: AB3-4 (antibody, V domains shown)
VH: B8 VH with C106Y
VL: B8 VL
notes: Humanized; full-length IgG; also called humanized AB 3-4
B11: AB3-5 (antibody, V domains shown)
VH: B8 VH with C106Y
VL: B8 VL with I48V, A84G
notes: Humanized; also called humanized AB 3-5
B12: AB9-4 (antibody, V domains shown)
VH: QVQLVQSGAEVKKPGASVKMSCKASGYRFTDYNMHWVRQAPGQGLEWIGYINPNNGGTNYAQKFQGRATLTVDTSTSTAYMELSSLRSEDTAVYYCARDYLYFFDCWGQGTLLTVSS
VL: DIQMTQSPSSLSASVGDRVTITCRASQTIGTWLAWYQQKPGKAPKLLIYAAASLADGVPSRFSGSGSGTDFTFTISSLQPEDFVTYYCQQLYSIPRTFGQGTKLEIK
notes: Humanized; also called humanized AB 9-4
B13: AB18-6 (antibody, V domains shown)
VH: QVQLVQSGAEVKKPGASVKISCKASGYSFTGYNMNWVRQAPGQGLEWIGNIDPYYGGSTYAQKFQGRATLTVDTSTSTAYMELSSLRSEDTAVYYCARERSGYVFSAMDYWGQGTLVTVSS
VL: DIVMTQSPDSLAVSLGERVTMNCKSSQSVLFSSNQKNYLAWYQQKPGQPPKLLIYWASTRESGVPDRFSGSGSGTDFTLTISSVQAEDVAVYYCHQYLSSRTFGQGTKLEIK
notes: Humanized; also called humanized AB 18-6
B14: AB11-2 (antibody, V domains shown)
VH: EVQLVESGGGLVQPGGSLRLSCAASGFTFSSFGMHWVRQAPGKGLEWVAYISSDSRTIYYADSVKGRFTISRDNAKNSLYLQMNSLRAEDTAVYYCARDYGRTYEAYWGQGTLVTVSS
VL: DIVMTQSPDSLAVSLGERATINCRASKSVSTSGYSYIHWYQQKPGQPPKLLIYLASNLESGVPDRFSGSGSGTDFTLTISSLQAEDVAVYYCQHSRELPLTFGQGTKLEIK
notes: Humanized; also called humanized AB 11-2
B15: AB11-3 (antibody, V domains shown)
VH: B14 VH
VL: B14 VL with M4L, L82V, I110L
notes: Humanized; also called humanized AB 11-3
B16: AB1-Chim (antibody, V domains shown)
VH: QVQLQQSAAELARPGASVKMSCKASGYTFTTYTMHWVKQRPGQGLEWIGFINPSSGYTDYNQKFKDRTTLTADKSSSTVYMQLSSLTSEDSAVYYCANGDYYVAYWGQGTLVTVSA
VL: QIVLTQSPAIMSASLGERVTMTCTASSSVSSTYFHWYQQKPGSSPKLWIYSTSNLASGVPRRFSGSASGTSYSLTISSMEAEDAATYYCHQYHRSPLTFGAGTKLELK
notes: Parental antibody prior to humanization ('chim'); also called pre-humanized form of AB1
B17: AB9-chim (antibody, V domains shown)
VH: EVQLQQSGPELVKPGASVKMSCKASGYRFTDYNMHWVKQSHGKSLEWIGYINPNNGGTNYNQNFKGKATLTVNKSSSTAYMELRSLTSEDSAAYYCARDYLYFFDCWGQGTTLTVSS
VL: DIQMTQSPASQSASLGESVTITCLASQTIGTWLAWYQQKPGKSPQLLIYAAASLADGVPSRFSGSGSGTRFSFKISSLQAEDFVSYYCQQLYSIPRTFGGGTKLEIK
notes: Parental antibody prior to humanization ('chim'); also called pre-humanized form of AB9
B18: AB4-4 (antibody, V domains shown)
VH: QVQLVQSGAEVKKPGASVKMSCKASGYTFTSYTMHWIRQAPGQGLEWIGYINPSSTYTHYAQKFQGRATLTADTSTSTAYMELSSLRSEDTAVYYCSRGELGGFAYWGQGTLVTVSS
VL: DVVMTQSPLSLPVTLGQPASISCRSSQSLVHSDGNTYLNWYQQRPGQSPRLLIYKVSNRFSGVPDRFSGSGSGTDFTLKISRVEAEDVGVYYCSQSTHVPYTFGQGTKLEIK
notes: Humanized; also called humanized AB 4-4
B19: AB4-5 (antibody, V domains shown)
VH: B18 VH with L45Q
VL: B18 VL
notes: Humanized; also called humanized AB 4-5
B20: AB4-3 (antibody, V domains shown)
VH: B18 VH with M20V, I37V, I48M, A68V, L70M, A79V
VL: B18 VL
notes: Humanized; also called humanized AB 4-3
B21: AB3-chim (antibody, V domains shown)
VH: EVKLEESGGGLVQPGGSMKLSCVASGFTFSNYWMNWVRQSPEKGLEWVAQIRLKSDNYATHYAESVKGRFTISRDDSKRSVYLQMNNLRAEDTGTYYCNDGPPSGCWGQGTTLIVSS
VL: DIQMTQSPASLSASVGETVTITCRISENIYSYLAWYQQKQGKSPQLLVYNAKILVEGVPSRFSGSGSGTQFSLKINSLQPEDFGNYYCQHHYTVPWTFGGGTKLEIK
notes: Parental antibody prior to humanization ('chim'); also called pre-humanized form of AB3

biological target: T1, human CLDN6, endogenously expressed on …; assay: FACS, OVCA429 cells, 1.5 ug Ab

Row | FACS signal | Binder
1 | 44700 | B1
2 | 34600 | B2
3 | 29900 | B3
4 | 27500 | B4
5 | 66000 | B5
6 | 54300 | B6
7 | 2440 | B7
8 | 85900 | B8
9 | 88700 | B9
10 | 2960 | B10
11 | 2950 | B11
12 | 1110 | B12
13 | 6750 | B13
14 | 2690 | B14
15 | 2200 | B15
16 | 177000 | B16
17 | 3570 | B17
18 | 1200 | B18
19 | 1350 | B19
20 | 1160 | B20
21 | 138000 | B21

biological target: T1, human CLDN6, endogenously expressed on …; assay: FACS, ARK2 cells, 0.3 ug Ab

Row | FACS signal | Binder
22 | 4440 | B1
23 | 3640 | B2
24 | 2820 | B3
25 | 2830 | B4
26 | 5810 | B5
27 | 7490 | B6
28 | 1320 | B7
29 | 14700 | B8
30 | 1160 | B9
31 | 1320 | B10
32 | 1280 | B11
33 | 1120 | B12
34 | 1390 | B13
35 | 1400 | B14
36 | 1320 | B15
37 | 58800 | B16
38 | 3510 | B17
39 | 1050 | B18
40 | 967 | B19
41 | 1190 | B20
42 | 17100 | B21

biological target: T1, human CLDN6, endogenously expressed on …; assay: FACS, ARK2 cells, 1.5 ug Ab

Row | FACS signal | Binder
43 | 11200 | B1
44 | 10000 | B2
45 | 7740 | B3
46 | 10800 | B4
47 | 17600 | B5
48 | 22400 | B6
49 | 1260 | B7
50 | 33600 | B8
51 | 54900 | B9
52 | 1460 | B10
53 | 2910 | B11
54 | 1550 | B12
55 | 1940 | B13
56 | 1940 | B14
57 | 1540 | B15
58 | 51900 | B16
59 | 4490 | B17
60 | 1400 | B18
61 | 1200 | B19
62 | 1520 | B20
63 | 29100 | B21

biological target: T2, mouse CLDN6 fused to GFP, expressed on …; assay: FACS, 293T clone with mouse CLDN6

Row | FACS signal | Binder
64 | 99700 | B1
65 | 75900 | B2
66 | 77600 | B3
67 | 89300 | B4
68 | 122000 | B5
69 | 128000 | B6
70 | 5490 | B7
71 | 31700 | B8
72 | 23000 | B9
73 | 1520 | B10
74 | 783 | B11
75 | 1710 | B12
76 | 7160 | B14
77 | 5520 | B15
78 | 514000 | B16
79 | 741 | B18
80 | 2000 | B19
81 | 671 | B20
82 | 67900 | B21
